From US20170074883A1

Assays:
[1] = molecular target: CD38 on the surface of the HCL cell line JOK-1 and its derivatives (JOK-Empty, JOK-RhoH, JOK-CD38-WT) (human) (UniProt P28907); test: flow cytometry, FITC-IB6 on JOK-Empty cells (RhoH not induced), mean of 4 experiments
[2] = molecular target: CD38 on the surface of the HCL cell line JOK-1 and its derivatives (JOK-Empty, JOK-RhoH, JOK-CD38-WT) (human) (UniProt P28907); test: flow cytometry, FITC-IB6 on JOK-RhoH cells (RhoH induced, lower CD38 expression), mean of 4 experiments

mean fluorescence intensity (after subtraction of isotype control) [1]: 71.8
mean fluorescence intensity (after subtraction of isotype control) [2]: 19.7
Substance: FITC-conjugated version of the monoclonal antibody IB6 directed against CD38 (Miltenyi Biotec)
